Laboratory results as given in patent US20160002331A1 (Pfizer, published 2016).
Values joined by “and” are separate entries in the source; they are usually repeats but may differ in a detail not shown here. Equal entries are not always repeated. Where two headings read alike, the source gives them in different places.

Tests used:
[1] = molecular target: T1, full-length human Notch1 expressed on the cell surface (human, UniProt P46531 19-2555); assay: cell-based or functional assay
[2] = molecular target: T2, human Notch1 NRR_Avi_His recombinant protein (human, UniProt P46531 1434-1737); assay: competition ELISA on coated human Notch1 NRR_Avi_His; competitor 0.8 nM biotinylated rat 438
T2 construct: Secreted from CHO-PACE cells; cleaved at S1 into an N-terminal ~26 kDa half (LNR-A, B, C, HD1) and a C-terminal ~12 kDa half (HD2 and tag) that stay associated non-covalently; written here as one chain; also called recombinant human Notch1 NRR; human Notch1 NRR immunogen
T2 sequence: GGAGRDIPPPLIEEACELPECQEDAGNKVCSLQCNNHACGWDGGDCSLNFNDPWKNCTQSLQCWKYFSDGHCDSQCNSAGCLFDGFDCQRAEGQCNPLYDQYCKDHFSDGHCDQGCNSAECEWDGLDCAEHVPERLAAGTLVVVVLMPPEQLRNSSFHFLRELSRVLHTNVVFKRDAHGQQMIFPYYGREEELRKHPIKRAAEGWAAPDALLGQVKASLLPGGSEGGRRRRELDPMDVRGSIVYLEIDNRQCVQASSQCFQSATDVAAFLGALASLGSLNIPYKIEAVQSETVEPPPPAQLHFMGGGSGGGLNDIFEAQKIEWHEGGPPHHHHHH
Procedure: (§1) In a similar manner as described for recombinant protein or cell based ELISAs, 96 well cell culture plates were either coated with Notch1 NRR-Avi_His protein (hi-bound co-Star plates), or seeded with full length Notch1 expressing U-2 OS cells (cell culture plate, Co-star), respectively.
(§2) After incubation for 2 hours, the plates were washed, as described above, and HRP-conjugated streptavidin (Southern Biotech) diluted 1:5000 in blocking buffer was applied. Incubation with streptavidin was allowed for 30 min before the plates were washed again and developed with TMB solution for 10 minutes. Developing reaction was stopped by adding 0.18M H₂SO₄ and absorbance at 450 nm was measured. Data plotting and analyses were performed with Microsoft Excel and Graphpad-Prizm software.

[3] = molecular target: T1, full-length human Notch1 expressed on …; assay: competition ELISA on U-2 OS cells expressing full-length human Notch1; competitor 0.8 nM biotinylated rat 438
Procedure: as §1, §2

[4] = molecular target: T1, full-length human Notch1 expressed on …; assay: cell-based or functional assay; remark: listed apart in the source
[5] = molecular target: T3, full-length mouse Notch1 expressed on the cell surface of U-2 OS cells (mouse, UniProt Q01705 19-2531); assay: cell-based or functional assay
[6] = molecular target: T4, full-length human Notch3 expressed on U-2 OS cell surface (human, UniProt Q9UM47 40-2321); assay: binding to Notch3 U-2 OS cells (N/B represents non-binding)
T4 construct: whole, on cells; also called Notch3 U2-OS cells; NotchS U-2 OS cells

[7] = molecular target: T1, full-length human Notch1 expressed on …; assay: cell-based or functional assay; remark: listed apart in the source
[8] = molecular target: T3, full-length mouse Notch1 expressed on …; assay: cell-based or functional assay; remark: listed apart in the source
[9] = molecular target: T1, full-length human Notch1 expressed on …; assay: cell-based or functional assay; remark: listed apart in the source
[10] = molecular target: T2, human Notch1 NRR_Avi_His recombinant …; assay: SPR (Biacore T100), ratio of KD to that of rat 351
[11] = molecular target: T2, human Notch1 NRR_Avi_His recombinant …; assay: SPR (Biacore T100), antibody captured by anti-human IgG-Fc, NRR_Avi_His as analyte, 1:1 Langmuir model
Procedure: The kinetic constants of the anti-Notch1 NRR interactions were determined by surface plasmon resonance (Biacore® T100, Biacore Inc., Piscataway, N.J.). Flow cells of a CM5 chip were immobilized with approximately 10,000 Resonance Unit (RU) of anti-human IgG-Fc (Biacore®) in 10 mM Glycine, pH 5.0 at 10 μl/min for 600 seconds. […] Association of four concentrations of human Notch1 NRR_Avi_His recombinant protein (from 3.7-100 nM) and a zero concentration (running buffer) at 100 μl/min were recorded for 3 minutes in TBS with 1 mM CaCl₂. Dissociation of the complexes was measured for 10 minutes. The surface of the chip was regenerated by injecting 3M MgCl₂ with 3 mM EGTA for 60 seconds at 10 μl/min. Curves obtained after subtraction of the reference and buffer signals were fitted to a 1:1 Langmuir binding model with Biacore® T100 Evaluation Software (Biacore®).

[12] = molecular target: T1, full-length human Notch1 expressed on …; assay: cell-based ELISA, U-2 OS cells expressing full-length human Notch1
Procedure: (§3) Supernatants from clones displaying positive binding to immunogens in recombinant Notch1 NRR based ELISAs described above were then screened for cell surface Notch1 binding in a cell-based ELISA. U-2 OS cells stably overexpressing human or mouse full length Notch1 protein on cell surface were plated at 50,000 cells/well in 96 well plates (white opaque, BD/VWR) the day before ELISA assay. On the day of the ELISA, culture media were removed from wells and serially diluted (1:3 in blocking buffer) antibody solutions or hybridoma culture supernatants were applied to the plate. Plates were incubated at room temperature for 2 hours before being washed with PBS-Mg/Ca. HRP-conjugated secondary antibody was then applied and incubated with cells for 1 hour as described above for recombinant protein ELISA. Plates were washed with PBS-Mg/Ca before being developed with Pico-Chemiluminescent developing kit (Thermal Scientific), and chemiluminescence measurements were performed per manufacturer's instructions. Data plotting and analyses were performed with Microsoft Excel and Graphpad-Prizm software.

[13] = molecular target: T1, full-length human Notch1 expressed on …; assay: cell-based or functional assay; remark: listed apart in the source
[14] = molecular target: T3, full-length mouse Notch1 expressed on …; assay: cell-based ELISA, U-2 OS cells expressing full-length mouse Notch1
Procedure: as §3

[15] = molecular target: T1, full-length human Notch1 expressed on …; assay: competition ELISA on U-2 OS cells expressing full-length human Notch1; competitor 0.8 nM biotinylated rat 351
Procedure: as §1, §2

[16] = molecular target: T1, full-length human Notch1 expressed on …; assay: cell-based or functional assay; remark: listed apart in the source
[17] = molecular target: T3, full-length mouse Notch1 expressed on …; assay: cell-based or functional assay; remark: listed apart in the source
Human Notch3 NRR-Fc = molecular target: T5, Human Notch3 NRR-Fc (human, UniProt Q9UM47 1378-1643, limits assumed); assay: binding to recombinant NRR-Fc fusion protein (N/B represents non-binding)
T5 construct: domain: NRR region; also called human Notch3 NRR-Fc fusion protein; not shown: human IgG1 Fc fragment
T5 sequence (looked up): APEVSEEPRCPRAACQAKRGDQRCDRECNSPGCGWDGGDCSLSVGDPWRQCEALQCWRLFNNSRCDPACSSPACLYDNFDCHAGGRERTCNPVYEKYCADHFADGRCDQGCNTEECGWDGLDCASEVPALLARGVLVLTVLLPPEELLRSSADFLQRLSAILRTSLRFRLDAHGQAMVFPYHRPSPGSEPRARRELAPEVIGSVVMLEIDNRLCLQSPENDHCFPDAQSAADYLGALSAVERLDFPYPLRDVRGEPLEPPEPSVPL

Mouse Notch3 NRR-Fc = molecular target: T6, Mouse Notch3 NRR-Fc (mouse, UniProt Q61982 1379-1643, limits assumed); assay: as above
T6 construct: domain: NRR region; also called mouse Notch3 NRR-Fc fusion protein; not shown: Fc part
T6 sequence (looked up): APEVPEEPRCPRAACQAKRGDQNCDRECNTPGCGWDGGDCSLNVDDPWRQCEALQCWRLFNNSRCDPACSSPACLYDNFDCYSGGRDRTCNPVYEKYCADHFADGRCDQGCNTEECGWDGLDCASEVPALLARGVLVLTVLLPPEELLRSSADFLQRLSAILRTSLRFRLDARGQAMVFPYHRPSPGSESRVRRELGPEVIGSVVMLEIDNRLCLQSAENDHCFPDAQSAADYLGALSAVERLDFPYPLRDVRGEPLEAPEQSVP

Human Notch2 NRR-Fc = molecular target: T7, Human Notch2 NRR-Fc (human, UniProt Q04721 1425-1677, limits assumed); assay: as above
T7 construct: domain: NRR region; Made in CHO-PACE cells; also called human Notch2 NRR-Fc fusion protein; not shown: human IgG1 Fc fragment
T7 sequence (looked up): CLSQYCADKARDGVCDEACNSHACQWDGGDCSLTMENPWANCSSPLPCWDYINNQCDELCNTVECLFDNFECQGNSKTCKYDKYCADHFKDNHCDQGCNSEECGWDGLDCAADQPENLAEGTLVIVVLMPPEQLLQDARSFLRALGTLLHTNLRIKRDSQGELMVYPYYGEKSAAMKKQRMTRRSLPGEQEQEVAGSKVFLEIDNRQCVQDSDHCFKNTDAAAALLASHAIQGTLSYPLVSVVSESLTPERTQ

T3 sequence (Q01705 19-2531): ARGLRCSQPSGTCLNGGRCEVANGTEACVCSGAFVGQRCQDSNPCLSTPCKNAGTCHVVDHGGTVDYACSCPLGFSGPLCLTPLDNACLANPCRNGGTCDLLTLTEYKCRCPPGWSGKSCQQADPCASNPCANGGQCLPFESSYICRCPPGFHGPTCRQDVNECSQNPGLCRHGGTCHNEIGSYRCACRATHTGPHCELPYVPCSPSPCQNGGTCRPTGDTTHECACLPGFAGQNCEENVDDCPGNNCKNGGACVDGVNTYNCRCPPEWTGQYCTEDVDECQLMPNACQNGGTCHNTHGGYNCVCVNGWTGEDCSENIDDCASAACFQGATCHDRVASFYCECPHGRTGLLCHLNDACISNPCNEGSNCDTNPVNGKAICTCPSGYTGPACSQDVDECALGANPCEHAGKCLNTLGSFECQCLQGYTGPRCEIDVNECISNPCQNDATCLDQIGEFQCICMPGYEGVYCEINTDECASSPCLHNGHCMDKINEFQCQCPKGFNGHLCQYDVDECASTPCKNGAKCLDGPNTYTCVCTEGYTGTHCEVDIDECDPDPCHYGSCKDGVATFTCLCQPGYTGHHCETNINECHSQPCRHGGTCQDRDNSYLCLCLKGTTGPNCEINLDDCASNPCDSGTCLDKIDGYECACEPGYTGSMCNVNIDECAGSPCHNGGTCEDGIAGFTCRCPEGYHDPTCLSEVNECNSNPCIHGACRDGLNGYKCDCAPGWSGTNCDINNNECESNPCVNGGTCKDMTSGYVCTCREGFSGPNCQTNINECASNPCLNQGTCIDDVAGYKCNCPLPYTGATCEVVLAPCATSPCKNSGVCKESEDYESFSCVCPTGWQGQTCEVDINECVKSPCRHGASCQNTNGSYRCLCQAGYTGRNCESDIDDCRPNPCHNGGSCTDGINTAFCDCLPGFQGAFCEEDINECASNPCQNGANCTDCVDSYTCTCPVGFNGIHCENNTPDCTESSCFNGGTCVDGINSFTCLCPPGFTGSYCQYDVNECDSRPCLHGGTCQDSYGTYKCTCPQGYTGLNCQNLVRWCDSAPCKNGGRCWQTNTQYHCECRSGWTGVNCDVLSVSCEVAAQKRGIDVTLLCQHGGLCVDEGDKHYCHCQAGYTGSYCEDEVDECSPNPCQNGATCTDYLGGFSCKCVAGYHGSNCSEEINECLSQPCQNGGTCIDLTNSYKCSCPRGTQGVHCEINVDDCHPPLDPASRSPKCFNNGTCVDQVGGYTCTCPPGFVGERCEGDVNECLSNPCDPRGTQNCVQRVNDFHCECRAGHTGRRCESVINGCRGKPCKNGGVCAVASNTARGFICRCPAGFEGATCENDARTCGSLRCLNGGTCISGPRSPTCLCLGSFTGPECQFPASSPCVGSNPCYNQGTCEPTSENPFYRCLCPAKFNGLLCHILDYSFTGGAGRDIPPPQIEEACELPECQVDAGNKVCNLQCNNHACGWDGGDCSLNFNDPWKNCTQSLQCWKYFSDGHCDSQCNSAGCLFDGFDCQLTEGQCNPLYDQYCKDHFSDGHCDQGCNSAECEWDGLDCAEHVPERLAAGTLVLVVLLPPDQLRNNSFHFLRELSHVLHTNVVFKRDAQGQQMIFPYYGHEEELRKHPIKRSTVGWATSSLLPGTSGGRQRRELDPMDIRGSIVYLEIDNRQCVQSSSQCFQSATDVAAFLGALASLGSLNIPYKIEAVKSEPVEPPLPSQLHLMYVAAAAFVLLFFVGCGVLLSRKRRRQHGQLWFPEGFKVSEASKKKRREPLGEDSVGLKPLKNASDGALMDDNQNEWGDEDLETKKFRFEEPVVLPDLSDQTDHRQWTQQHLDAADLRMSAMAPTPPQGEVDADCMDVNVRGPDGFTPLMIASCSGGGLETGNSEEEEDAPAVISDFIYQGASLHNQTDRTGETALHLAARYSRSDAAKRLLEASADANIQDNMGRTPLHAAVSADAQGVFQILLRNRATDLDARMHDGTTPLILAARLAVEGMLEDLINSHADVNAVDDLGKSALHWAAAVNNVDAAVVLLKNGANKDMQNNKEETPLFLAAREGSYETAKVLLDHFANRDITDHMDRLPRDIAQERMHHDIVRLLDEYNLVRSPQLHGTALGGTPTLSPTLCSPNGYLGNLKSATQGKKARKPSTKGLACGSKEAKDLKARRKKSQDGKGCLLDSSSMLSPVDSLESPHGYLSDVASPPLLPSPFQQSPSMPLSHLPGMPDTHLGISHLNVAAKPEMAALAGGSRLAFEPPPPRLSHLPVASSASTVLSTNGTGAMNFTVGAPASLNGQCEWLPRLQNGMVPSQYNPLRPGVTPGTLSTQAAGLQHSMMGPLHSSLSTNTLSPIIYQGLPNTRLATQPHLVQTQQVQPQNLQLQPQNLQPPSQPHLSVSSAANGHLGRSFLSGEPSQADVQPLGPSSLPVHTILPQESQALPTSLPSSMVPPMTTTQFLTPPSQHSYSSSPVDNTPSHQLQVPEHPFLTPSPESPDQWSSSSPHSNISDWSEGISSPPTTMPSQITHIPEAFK
T1 sequence (P46531 19-2555): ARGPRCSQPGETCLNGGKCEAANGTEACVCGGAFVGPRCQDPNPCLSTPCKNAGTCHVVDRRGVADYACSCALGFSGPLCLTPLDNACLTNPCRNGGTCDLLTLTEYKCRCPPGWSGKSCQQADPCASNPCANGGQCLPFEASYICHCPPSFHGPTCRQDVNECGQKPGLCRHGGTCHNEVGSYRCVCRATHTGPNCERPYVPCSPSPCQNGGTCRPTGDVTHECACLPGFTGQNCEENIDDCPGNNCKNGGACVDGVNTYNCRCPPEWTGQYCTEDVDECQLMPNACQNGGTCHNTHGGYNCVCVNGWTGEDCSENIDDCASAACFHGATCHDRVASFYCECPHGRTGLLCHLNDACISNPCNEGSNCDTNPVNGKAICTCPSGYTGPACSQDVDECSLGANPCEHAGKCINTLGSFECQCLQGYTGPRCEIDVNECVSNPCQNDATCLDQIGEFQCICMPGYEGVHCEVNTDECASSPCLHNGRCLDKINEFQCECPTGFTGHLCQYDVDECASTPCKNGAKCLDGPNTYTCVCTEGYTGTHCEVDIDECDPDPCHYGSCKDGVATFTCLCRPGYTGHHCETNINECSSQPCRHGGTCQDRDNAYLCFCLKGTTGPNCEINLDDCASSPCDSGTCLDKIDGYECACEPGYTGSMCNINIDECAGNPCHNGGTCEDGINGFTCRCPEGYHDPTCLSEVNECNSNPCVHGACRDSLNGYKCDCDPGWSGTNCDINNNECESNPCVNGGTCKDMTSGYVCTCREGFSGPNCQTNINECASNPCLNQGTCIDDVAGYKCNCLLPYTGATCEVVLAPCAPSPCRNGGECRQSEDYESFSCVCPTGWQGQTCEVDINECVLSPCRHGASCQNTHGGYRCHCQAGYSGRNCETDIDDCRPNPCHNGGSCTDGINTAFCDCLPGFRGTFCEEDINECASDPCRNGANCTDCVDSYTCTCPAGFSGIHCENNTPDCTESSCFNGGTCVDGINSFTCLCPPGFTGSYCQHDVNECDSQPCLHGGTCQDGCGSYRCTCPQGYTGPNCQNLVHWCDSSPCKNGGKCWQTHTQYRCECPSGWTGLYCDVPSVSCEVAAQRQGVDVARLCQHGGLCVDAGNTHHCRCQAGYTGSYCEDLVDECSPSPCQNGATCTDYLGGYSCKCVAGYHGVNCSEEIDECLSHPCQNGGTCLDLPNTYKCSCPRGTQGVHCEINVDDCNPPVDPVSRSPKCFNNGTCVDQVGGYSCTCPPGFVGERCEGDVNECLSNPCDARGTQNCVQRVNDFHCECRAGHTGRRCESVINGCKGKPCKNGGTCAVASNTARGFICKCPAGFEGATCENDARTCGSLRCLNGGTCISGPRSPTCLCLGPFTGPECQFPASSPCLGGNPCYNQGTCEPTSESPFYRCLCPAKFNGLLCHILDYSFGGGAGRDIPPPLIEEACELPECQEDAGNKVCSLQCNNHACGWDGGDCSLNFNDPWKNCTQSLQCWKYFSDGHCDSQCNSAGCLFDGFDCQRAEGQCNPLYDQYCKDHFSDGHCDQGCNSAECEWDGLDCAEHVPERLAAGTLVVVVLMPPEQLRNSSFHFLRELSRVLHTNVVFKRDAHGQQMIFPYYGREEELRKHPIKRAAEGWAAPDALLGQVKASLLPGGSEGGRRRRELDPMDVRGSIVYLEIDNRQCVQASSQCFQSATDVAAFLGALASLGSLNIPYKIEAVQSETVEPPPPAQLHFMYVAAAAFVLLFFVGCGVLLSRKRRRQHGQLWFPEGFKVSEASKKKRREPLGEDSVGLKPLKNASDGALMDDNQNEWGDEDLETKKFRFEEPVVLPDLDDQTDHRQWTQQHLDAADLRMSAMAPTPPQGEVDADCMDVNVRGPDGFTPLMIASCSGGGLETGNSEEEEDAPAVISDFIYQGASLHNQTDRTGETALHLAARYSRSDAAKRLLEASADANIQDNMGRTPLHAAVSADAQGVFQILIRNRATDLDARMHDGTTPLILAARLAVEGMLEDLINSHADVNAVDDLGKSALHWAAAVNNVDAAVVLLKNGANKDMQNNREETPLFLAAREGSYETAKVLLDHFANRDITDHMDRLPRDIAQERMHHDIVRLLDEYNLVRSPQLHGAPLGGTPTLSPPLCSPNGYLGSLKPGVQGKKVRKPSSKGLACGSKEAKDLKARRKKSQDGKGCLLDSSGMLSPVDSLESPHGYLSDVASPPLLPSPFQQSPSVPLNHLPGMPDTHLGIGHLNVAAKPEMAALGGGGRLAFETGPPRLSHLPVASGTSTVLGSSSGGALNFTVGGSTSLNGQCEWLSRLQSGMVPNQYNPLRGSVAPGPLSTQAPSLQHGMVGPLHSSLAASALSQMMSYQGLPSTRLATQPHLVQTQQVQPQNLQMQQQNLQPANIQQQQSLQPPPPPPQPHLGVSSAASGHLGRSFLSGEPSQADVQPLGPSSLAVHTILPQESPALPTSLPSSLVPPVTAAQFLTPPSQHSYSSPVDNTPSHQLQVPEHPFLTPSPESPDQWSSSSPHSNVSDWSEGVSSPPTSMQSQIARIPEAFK

B1: rat 438-mIgG1 (antibody, V domains shown)
VH: AVQLVESGGGLVQPGRSLKLSCTASGFTFSSFAMAWVRQAPTKGLEWVASISYGGADTYYRDSVKGRFTISRDNAKSSLYLQMDSLRSEDTSTYYCAKDLPYYGYTPFVMDAWGQGTSVTVSS
VL: DIMLTQSPPTLSVTPGETISLSCRASQRINTDLHWYQQKPNESPRVLIKFASQTISGVPSRFSGSGSGTDFTLNINRVEPEDFSVYYCQQSNSWPYTFGAGTKLELK
notes: also called r438-mIgG; Rat438-mlgG
Firefly/Renilla Luminescence, human Notch1 reporter cells + 5 mM EDTA, 0.01 µg/mL antibody [1]: 338 Firefly/Renilla ratio | Firefly/Renilla Luminescence, human Notch1 reporter cells + 5 mM EDTA, 0.1 µg/mL antibody [1]: 246 Firefly/Renilla ratio | Firefly/Renilla Luminescence, human Notch1 reporter cells + 5 mM EDTA, 1 µg/mL antibody [1]: 117 Firefly/Renilla ratio | Firefly/Renilla Luminescence, human Notch1 reporter cells + 5 mM EDTA, 10 µg/mL antibody [1]: 54.3 Firefly/Renilla ratio | Firefly/Renilla Luminescence, human Notch1 reporter cells + 5 mM EDTA, 30 µg/mL antibody [1]: 46.9 Firefly/Renilla ratio | EC50 [2]: 1500 pM | EC50 [3]: 3600 pM | IC50, human Notch1 reporter gene co-culture assay (DLL4-HEK293) [4]: 680 pM | IC50, mouse Notch1 reporter gene co-culture assay (DLL4-HEK293) [5]: 710 pM | binding result [6]: no binding

B2: parental rat 351 (antibody, V domains shown)
VH: EVQLVESGGGLVQPGRSLKVSCLASGFTFSHYGMNWIRQAPGKGLDWVASISRSGSYIRYVDTVKGRFTVSRDIAKNTLYLQMTSLRSEDTALYYCAREGQFGDYFEYWGQGVMVTVSS
VL: DIMLTQSPATLSVTPGERISLSCRASQKISTNLHWYQQKPNESPRILIKYASQTISGIPSRFSGSGSGTDFTLHINTVEPEDFSVYYCQQTNSWPLTFGSGTKLEIK
notes: Rat monoclonal IgG from a hybridoma
Neutralization activity (Human RGA), IC50 [7]: 400 pM | Neutralization activity (murine RGA), IC50 [8]: 300 pM | IC50, Notch1 signaling inhibition co-culture reporter assay [9]: 190 pM | Maximal Inhibition (%), Notch1 signaling inhibition co-culture reporter assay [9]: 87.5% | Fold difference from rat 351 [10]: 1 fold | Kd [11]: 2330 pM and 2300 pM | koff [11]: 0.00102 s⁻¹ | kon [11]: 439000 M⁻¹ s⁻¹ | EC50 [12]: 100 pM | Normalized Notch1^ICD level, CCD1076SK fibroblasts on DLL4, 0.001 µg/ml antibody [13]: 0.826 relative to untreated | Normalized Notch1^ICD level, CCD1076SK fibroblasts on DLL4, 0.01 µg/ml antibody [13]: 0.848 relative to untreated | Normalized Notch1^ICD level, CCD1076SK fibroblasts on DLL4, 0.1 µg/ml antibody [13]: 0.554 relative to untreated | Normalized Notch1^ICD level, CCD1076SK fibroblasts on DLL4, 1 µg/ml antibody [13]: 0.393 relative to untreated | Normalized Notch1^ICD level, CCD1076SK fibroblasts on DLL4, 10 µg/ml antibody [13]: 0.302 relative to untreated | EC50 [14]: 70 pM | EC50 [15]: 4430 pM

B3: humanized 351 VH1.0/VL1.4 (antibody, human IgG1, V domains shown)
VH: EVQLVESGGGLVQPGGSLRLSCAASGFTFSHYGMNWVRQAPGKGLEWVASISRSGSYIRYVDTVKGRFTISRDNAKNSLYLQMNSLRAEDTAVYYCAREGQFGDYFEYWGQGTLVTVSS
VL: DIQMTQSPSSLSASVGDRVTITCRASQKISTNLHWYQQKPGKAPKLLIKYASQTISGVPSRFSGSGSGTDFTLTISSLQPEDFATYYCQQTNSWPLTFGGGTKVEIK
Fold difference from rat 351 [10]: 2.1 fold | Kd [11]: 4880 pM and 4900 pM | koff [11]: 0.00223 s⁻¹ | kon [11]: 458000 M⁻¹ s⁻¹ | EC50 [12]: 100 pM | EC50 [14]: 70 pM | Neutralization activity (Human RGA), IC50 [16]: 170 pM | Neutralization activity (murine RGA), IC50 [17]: 490 pM | EC50 [15]: 2110 pM

B4: humanized 351 VH1.0/VL1.1 (antibody, human IgG1, kappa, V domains shown)
VH: EVQLVESGGGLVQPGGSLRLSCAASGFTFSHYGMNWVRQAPGKGLEWVASISRSGSYIRYVDTVKGRFTISRDNAKNSLYLQMNSLRAEDTAVYYCAREGQFGDYFEYWGQGTLVTVSS
VL: DIQMTQSPSSLSASVGDRVTITCRASQKISTNLHWYQQKPGKAPKILIKYASQTISGVPSRFSGSGSGTDFTLTISSLQPEDFATYYCQQTNSWPLTFGGGTKVEIKR
notes: full chains (VH1.0)-hIgG1-3M and (VL1.1)-hkappa
binding result (Human Notch3 NRR-Fc): no binding | binding result (Mouse Notch3 NRR-Fc): no binding | binding result (Human Notch2 NRR-Fc): no binding
